Source: patent US11512128B2, “VEGF/DLL4 binding agents and uses thereof” (MEREO BIOPHARMA 5, INC., priority 2011, dated 2022)
Each block holds one molecule with its values, some of them ahead of it.

Assays:
human DLL4-Fc = human DLL4-Fc (Homo sapiens, UniProt Q9NR61); test: Biacore binding affinity (KD) to human DLL4; settings: Biacore 2000, human DLL4-Fc on CM5 chip; read-out: KD hDLL4
Procedure: (§1) The KDs of parental antibodies anti-VEGF 219R45 (IgG format), anti-DLL4 21R79 (IgG format), anti-DLL4 21M18 (IgG format) and bispecific antibodies 219R45-MB-21M18 and 219R45-MB-21R79 were determined using a Biacore 2000 system from Biacore LifeSciences (GE Healthcare). Recombinant human DLL4-Fc or mouse DLL4-Fc proteins were immobilized on CM5 carboxyl chips using standard amine-based chemistry (NHS/EDC) and blocked with ethanolamine. Recombinant human VEGF165 or mouse VEGF165 were biotinylated and immobilized on streptavidin chips. The antibodies were serially diluted 2-fold from 100 nM to 0.78 nM in HBS-P (0.01M HEPES pH7.4, 0.15M NaCl, 0.005% v/v Polysorbate 20). For each antibody, all 8 dilutions were sequentially injected over a specific chip. Kinetic data were collected over time and were fit using the simultaneous global fit equation to yield affinity constants (KD values) for each bispecific antibody.
Several additional anti-DLL4 antibodies were identified that had binding affinities intermediate to the KDs of 21M18 and 21R79. Two of these anti-DLL4 antibodies were used to produce anti-VEGF/anti-DLL4 bispecific antibodies 219R45-MB-21R75 and 219R45-MB-21R83. Using the Biacore 2000 system as described above, the KDs of the bispecific antibodies 219R45-MB-21R75 and 219R45-MB-21R83 to human DLL4 were determined.

mouse VEGF165 = biological target: T1, mouse VEGF165 (Mus musculus, UniProt Q00731); test: Biacore binding affinity (KD) to mouse VEGF; settings: Biacore 2000, biotinylated mouse VEGF165 on streptavidin chip; read-out: KD mVEGF
T1 sequence (Q00731 27-190 isoform Q00731-2): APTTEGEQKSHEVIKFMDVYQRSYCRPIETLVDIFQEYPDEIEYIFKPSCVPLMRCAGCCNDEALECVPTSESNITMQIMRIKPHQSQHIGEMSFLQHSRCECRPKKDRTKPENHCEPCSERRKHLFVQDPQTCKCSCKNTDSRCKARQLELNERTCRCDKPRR
Procedure: as §1

mouse DLL4-Fc = test: Biacore binding affinity (KD) to mouse DLL4; settings: Biacore 2000, mouse DLL4-Fc on CM5 chip; read-out: KD mDLL4
Procedure: as §1

[1] = system: VEGF-induced proliferation of HUVEC cells; test: HUVEC proliferation assay; format: cell-based, human; settings: hVEGF 5 ng/ml, Alamar Blue on day 7
Procedure: FIG. 3. Inhibition of VEGF-induced HUVEC proliferation by anti-VEGF/anti-DLL4 bispecific antibodies. Fluorescence intensity is read using an excitation wavelength of 530 nm and an emission wavelength of 590. 219R45-MB-21M18 (-●-); 219R45-MB-21R79 (-▴-); 219R45 (-▪-); Medium with no VEGF (-⋄-).
HUVEC cells were obtained from Lonza (Walkersville, Md.) and cultured in growth media (M199, 10% heat-inactivated FBS (HI-FBS), 50 μg/ml EGS, 1X heparin, 1 mM L-glutamine). For the HUVEC proliferation assay, a 96-well plate was pre-coated with 50 μl of 10 μg/ml rat tail collagen type I solution (collagen I in 0.02N acetic acid) and incubated at 4° C. overnight. After incubation, the plate was thoroughly aspirated to remove unbound collagen I solution and washed once with 200 μl DPBS. The HUVEC cells were removed from the surface of the growth flasks using an endothelial cell subclone reagent and centrifuged at 1200 rpm for 5 minutes at 4° C. The cells were resuspended in starvation/assay medium (M199 and 2% HI-FBS, 1× heparin, 5 U/ml heparin-glutamine) at a density of 10^5 cells/ml. The cells were seeded into the collagen-coated assay plate at 5000 cells/well, 50 ul/well. The cells were incubated for 3 hours at 37° C., washed one time, refed with 100 ul assay media, and incubated overnight at 37° C. The next day, bispecific antibodies 219R45-MB-21M18, 219R45-MB-21R79, parental antibody 219R45, or control antibody LZ1 were prepared in a mixture with human VEGF (R&D Biosystems, Minneapolis, Minn.). The antibodies were serially diluted 5-fold from […] to 0.25 nM in assay buffer in combination with hVEGF (final concentration 5 ng/ml). The mixture was pre-incubated at 37° C. for 2 hours. The medium was removed from the assay plate, and 100 μl of the antibody/hVEGF mixture was added to each well. […] The plate was read with a SpectraMax M5e Microplate reader (Molecular Devices, Sunnyvale CA) using a excitation wavelength of […] and an emission wavelength of 590 nm.

[2] = system: DLL4-induced Notch signaling; test: DLL4-induced Notch signaling luciferase reporter assay in Notch2-expressing PC3 cells; format: cell-based; settings: coated human DLL4 100 ng/well, antibody 20 to 0.064 ug/ml
Procedure: FIG. 4. Inhibition of DLL4-induced Notch signaling by anti-VEGF/anti-DLL4 bispecific antibodies. Luciferase activity was measured using a dual luciferase assay kit with firefly luciferase activity normalized to Renilla luciferase activity. 219R45-MB-21M18 (-●-); 219R45-MB-21R79 (-▪-); 21M18 (-∘-); 21R79 (-□-).
Human PC3 cells were transfected with an expression vector encoding a full-length human Notch2 receptor and a firefly luciferase reporter vector (8× CBF-luciferase reporter) that is responsive to Notch signaling. The cells were also transfected with a Renilla luciferase reporter (Promega, Madison, Wis.) as an internal control for transfection efficiency. Purified human DLL4 protein was coated onto 96-well plates at 100 ng/well and Notch2-expressing PC3-luc cells were added to the wells. Anti-VEGF/anti-DLL4 bispecific antibodies 219R45-MB-21M18, 219R45-MB-21R79, parental anti-DLL4 antibodies 21M18, 21R79 or a control antibody LZ1 were serially diluted 5-fold from 20 ug/ml to 0.064 ug/ml, added to the appropriate wells, and incubated overnight. Luciferase activity was determined using a dual luciferase assay kit (Promega, Madison, Wis.) with firefly luciferase activity normalized to Renilla luciferase activity.

human VEGF165 = biological target: T2, human VEGF165 (Homo sapiens, UniProt P15692); test: Biacore binding affinity (KD) to human VEGF; settings: Biacore 2000, biotinylated human VEGF165 on streptavidin chip; read-out: KD hVEGF
T2 sequence (P15692 27-191 isoform P15692-4): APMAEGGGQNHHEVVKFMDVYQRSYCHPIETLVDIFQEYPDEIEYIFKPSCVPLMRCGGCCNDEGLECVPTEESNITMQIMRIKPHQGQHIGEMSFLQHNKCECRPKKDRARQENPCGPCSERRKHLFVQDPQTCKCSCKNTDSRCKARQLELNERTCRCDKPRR
Procedure: as §1

Sequence of mouse DLL4-Fc (Q9JI71 27-519 limits assumed): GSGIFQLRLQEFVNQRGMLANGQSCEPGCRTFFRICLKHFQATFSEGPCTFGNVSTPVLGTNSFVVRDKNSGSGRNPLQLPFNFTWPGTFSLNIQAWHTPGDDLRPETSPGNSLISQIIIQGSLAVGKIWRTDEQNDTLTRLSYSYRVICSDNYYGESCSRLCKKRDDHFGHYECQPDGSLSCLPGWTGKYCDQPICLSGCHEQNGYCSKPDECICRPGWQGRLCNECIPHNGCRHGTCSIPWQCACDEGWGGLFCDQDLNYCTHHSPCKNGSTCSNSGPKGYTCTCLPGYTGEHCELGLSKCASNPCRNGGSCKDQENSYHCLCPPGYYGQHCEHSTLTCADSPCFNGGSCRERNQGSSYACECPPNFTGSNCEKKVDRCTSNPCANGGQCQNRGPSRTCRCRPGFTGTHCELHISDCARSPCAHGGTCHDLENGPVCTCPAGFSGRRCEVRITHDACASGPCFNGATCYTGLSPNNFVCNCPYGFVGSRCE
Sequence of human DLL4-Fc (Q9NR61 27-522 limits assumed): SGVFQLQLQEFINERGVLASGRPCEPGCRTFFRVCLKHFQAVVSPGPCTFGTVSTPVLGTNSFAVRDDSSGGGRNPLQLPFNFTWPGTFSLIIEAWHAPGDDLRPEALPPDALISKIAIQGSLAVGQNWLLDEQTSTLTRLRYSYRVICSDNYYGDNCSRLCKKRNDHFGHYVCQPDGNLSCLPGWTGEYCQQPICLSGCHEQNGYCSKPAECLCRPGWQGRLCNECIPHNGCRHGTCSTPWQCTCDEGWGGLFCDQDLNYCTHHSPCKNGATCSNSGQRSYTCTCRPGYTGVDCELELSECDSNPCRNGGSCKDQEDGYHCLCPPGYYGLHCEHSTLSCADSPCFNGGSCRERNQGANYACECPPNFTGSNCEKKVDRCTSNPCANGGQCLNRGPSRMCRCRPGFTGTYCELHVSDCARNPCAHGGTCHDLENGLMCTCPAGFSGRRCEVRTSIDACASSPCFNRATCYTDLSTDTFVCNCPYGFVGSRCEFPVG

Kd (human DLL4-Fc): > 100 nM
Kd (mouse VEGF165): ~23 nM
Kd (mouse DLL4-Fc): > 100 nM
B1: 219R45: monoclonal antibody that specifically binds human VEGF; parental anti-VEGF antibody (antibody)
heavy: QVQLVQSGAEVKKPGASVKVSCKASGYTFTNYWMHWVRQAPGQGLEWMGDINPSNGRTSYKEKFKRRVTLSVDKSSSTAYMELSSLRSEDTAVYFCTIHYDDKYYPLMDYWGQGTLVTVSSASTKGPSVFPLAPCSRSTSESTAALGCLVKDYFPEPVTVSWNSGALTSGVHTFPAVLQSSGLYSLSSVVTVPSSNFGTQTYTCNVDHKPSNTKVDKTVERKCCVECPPCPAPPVAGPSVFLFPPKPKDTLMISRTPEVTCVVVDVSHEDPEVQFNWYVDGVEVHNAKTKPREEQFNSTFRVVSVLTVVHQDWLNGKEYKCKVSNKGLPAPIEKTISKTKGQPREPQVYTLPPSREEMTKNQVSLTCLVKGFYPSDIAVEWESNGQPENNYKTTPPMLDSDGSFFLYSKLTVDKSRWQQGNVFSCSVMHEALHNHYTQKSLSLSPGK
light: DIVMTQSPDSLAVSLGERATISCRASESVDNYGISFMKWFQQKPGQPPKLLIYAASNQGSGVPDRFSGSGSGTDFTLTISSLQAEDVAVYYCQQSKEVPWTFGGGTKVEIKRTVAAPSVIFPPSDEQLKSGTASVVCLLNNFYPREAKVQWKVDNALQSGNSQESVTEQDSKDSTYSLSSTLTLSKADYEKHKVYACEVTHQGLSSPVTKSFNRGEC
inhibition of VEGF-induced HUVEC proliferation [1]: inhibited HUVEC proliferation

Kd (mouse VEGF165): > 100 nM
Kd (human VEGF165): > 100 nM
Kd (mouse DLL4-Fc): > 100 nM
B2: 21R79: monoclonal antibody that specifically binds human DLL4; parental anti-DLL4 antibody (antibody)
heavy: QVQLVQSGAEVKKPGASVKISCKASGYSFTAYYIHWVKQAPGQGLEWIGYIANYNRATNYNQKFKGRVTFTTDTSTSTAYMELRSLRSDDTAVYYCARDYDYDVGMDYWGQGTLVTVSSASTKGPSVFPLAPCSRSTSESTAALGCLVKDYFPEPVTVSWNSGALTSGVHTFPAVLQSSGLYSLSSVVTVPSSNFGTQTYTCNVDHKPSNTKVDKTVERKCCVECPPCPAPPVAGPSVFLFPPKPKDTLMISRTPEVTCVVVDVSHEDPEVQFNWYVDGVEVHNAKTKPREEQFNSTFRVVSVLTVVHQDWLNGKEYKCKVSNKGLPAPIEKTISKTKGQPREPQVYTLPPSREEMTKNQVSLTCLVKGFYPSDIAVEWESNGQPENNYKTTPPMLDSDGSFFLYSKLTVDKSRWQQGNVFSCSVMHEALHNHYTQKSLSLSPGK
light: B1 light
inhibition of DLL4-induced Notch signaling [2]: inhibited DLL4-induced Notch signaling
